Source: PMC11373624, “Development and preclinical characterization of a novel radiotheranostic EphA2-targeting bicyclic peptide” (Theranostics, 2024)
Numbered stars: 1 amine (or outer) side, 2 acyl side, 3 side chain; on linkers, the order of the positions; unused ones are H or OH. Bridge positions count the residues as written; N and C are the ends. Square brackets hold non-standard residues; d marks the D form. Peptide text beside a SMILES is read from it. * marks the point of attachment. DOTA = O=C(O)CN1CCN(CC(=O)O)CCN(CC(=O)*)CCN(CC(=O)O)CC1; TATA = O=C(CC[*:1])N1CN(C(=O)CC[*:2])CN(C(=O)CC[*:3])C1; Hyp = O=C(O)[C@@H]1C[C@@H](O)CN1; hArg = N=C(N)NCCCC[C@H](N)C(=O)O; Cba = N[C@@H](CC1CCC1)C(=O)O; βAla = NCCC(=O)O; Sar = CNCC(=O)O

Assays:
in vivo = details: mouse; for tissue to tissue ratio at 1 h / tissue to tissue ratio at 2 h / tissue to tissue ratio at 6 h / tissue to tissue ratio at 24 h: iv, 150 pmol
Source text: (§1) For the cut and count biodistribution study of [^177Lu]Lu-BCY18469 the HT1080 xenograft model was used. […] (n = 3 mice per time point). Thereafter, mice were dissected, and organs of interest harvested, which included: blood, heart, lung, spleen, liver, kidneys, muscle (quadriceps), intestine, brain, tail, bone (femur) and grafted tumor.

HT1080 tumor xenograft = test: in vivo; details: mouse
Source text: as §1

HT1080 cells = test: Cell surface binding and internalization assay; assay type: cell-based, human
Experimental: To assess internalization and specificity, HT1080 cells (10^5 cells/well) were seeded in a 24-well plate coated with poly-L-lysine one day before the experiment. […] To determine specific uptake, 'cold' (non-radiolabeled) BCY18469 was added to half of the wells at an excess concentration of 10 µM/well or, alternatively, the cells were kept at 4 °C during the experiment. Following the incubation, the cells were thoroughly rinsed with cold PBS (3 x 1 mL). Subsequently, surface bound radioactivity was removed by washing with 50 mM glycine (pH 2.8, 2 x 500 µL). Finally, the internalized fraction was determined by lysing the cells with 0.5 M NaOH (500 µL). All fractions were collected and measured using a gamma counter (Perkin Elmer Wizard2, Germany). All counts were standardized to the initial activity, and specific surface binding as well as specific internalization were calculated by subtracting the non-specific binding values obtained from the wells treated with an excess of 'cold' compound. Results were calculated and expressed as %AA/10^5 cells (% applied activity/10^5 cells).

[1] = total radioactivity, Tumor-to-blood ratio
[2] = total radioactivity, Tumor-to-heart ratio
[3] = total radioactivity, Tumor-to-intestine ratio
[4] = total radioactivity, Tumor-to-kidneys ratio
[5] = total radioactivity, Tumor-to-liver ratio
[6] = total radioactivity, Tumor-to-lung ratio
[7] = total radioactivity, Tumor-to-muscle ratio
[8] = total radioactivity, Tumor-to-spleen ratio
[9] = total radioactivity, Tumor uptake
[10] = 4°C, block with 10 µM non-labeled compound, listed as 177Lu-BCY18469
[11] = 37°C, 45 min, 30 nM, listed as 177Lu-BCY18469

CC(C)C[C@@H]1NC(=O)[C@@H]2CSCCC(=O)N3CN(CN(C3)C(=O)CCSC[C@H](NC(=O)[C@H](CC(=O)O)NC(=O)[C@H](CCCCNC(=N)N)NC(=O)[C@H](C)NC(=O)CN(C)C(=O)CN(C)C(=O)CN(C)C(=O)CN(C)C(=O)CN(C)C(=O)CN(C)C(=O)CN(C)C(=O)CN(C)C(=O)CN(C)C(=O)CN(C)C(=O)CCNC(=O)CN3CCN(CC(=O)O)CCN(CC(=O)O)CCN(CC(=O)O)CC3)C(=O)N3C[C@H](O)C[C@H]3C(=O)N[C@@H](CC3CCC3)C(=O)N[C@@H](C(C)C)C(=O)N[C@@H](CC(N)=O)C(=O)N3CCC[C@H]3C(=O)N[C@@H](CC(C)C)C(=O)N2)C(=O)CCSC[C@@H](C(N)=O)NC(=O)[C@H](CCCCNC(=N)N)NC(=O)[C@H](Cc2c[nH]c3ccccc23)NC(=O)[C@@H](CC(=O)O)NC(=O)[C@@H]2CCCN2C(=O)[C@H](Cc2c[nH]cn2)NC1=O [[177Lu]Lu-BCY18469, metal not drawn] ({DOTA-βAla}-[Sar][Sar][Sar][Sar][Sar][Sar][Sar][Sar][Sar][Sar]A[hArg]DC[Hyp][Cba]VNPLCLHP[dD]W[hArg]C-NH2; linker 14-21-28 via TATA)
tissue uptake at 1 h (in vivo; Blood uptake): 0.2 %ID/g
tissue uptake at 2 h (in vivo; Blood uptake): 0.03 %ID/g
tissue uptake at 6 h (in vivo; Blood uptake): 0.02 %ID/g
tissue uptake at 24 h (in vivo; Blood uptake): 0.01 %ID/g
tissue uptake at 1 h (in vivo; Bone uptake): 0.3 %ID/g
tissue uptake at 2 h (in vivo; Bone uptake): 0.21 %ID/g
tissue uptake at 6 h (in vivo; Bone uptake): 0.56 %ID/g
tissue uptake at 24 h (in vivo; Bone uptake): 0.44 %ID/g
tissue uptake at 2 h (in vivo; Brain uptake): 0.01 %ID/g
tissue uptake at 6 h (in vivo; Brain uptake): 0.01 %ID/g
tissue uptake at 1 h (in vivo; Heart uptake): 0.1 %ID/g
tissue uptake at 2 h (in vivo; Heart uptake): 0.03 %ID/g
tissue uptake at 6 h (in vivo; Heart uptake): 0.05 %ID/g
tissue uptake at 24 h (in vivo; Heart uptake): 0.03 %ID/g
tissue uptake at 1 h (in vivo; Intestine uptake): 0.34 %ID/g
tissue uptake at 2 h (in vivo; Intestine uptake): 0.16 %ID/g
tissue uptake at 6 h (in vivo; Intestine uptake): 0.15 %ID/g
tissue uptake at 24 h (in vivo; Intestine uptake): 0.1 %ID/g
tissue uptake at 1 h (in vivo; Kidneys uptake): 65.3 %ID/g
tissue uptake at 2 h (in vivo; Kidneys uptake): 47.2 %ID/g
tissue uptake at 6 h (in vivo; Kidneys uptake): 62.6 %ID/g
tissue uptake at 1 h (in vivo; Liver uptake): 0.25 %ID/g
tissue uptake at 2 h (in vivo; Liver uptake): 0.15 %ID/g
tissue uptake at 6 h (in vivo; Liver uptake): 0.6 %ID/g
tissue uptake at 24 h (in vivo; Liver uptake): 0.53 %ID/g
tissue uptake at 1 h (in vivo; Lung uptake): 0.7 %ID/g
tissue uptake at 2 h (in vivo; Lung uptake): 0.19 %ID/g
tissue uptake at 6 h (in vivo; Lung uptake): 0.28 %ID/g
tissue uptake at 24 h (in vivo; Lung uptake): 0.13 %ID/g
tissue uptake at 1 h (in vivo; Muscle uptake): 0.06 %ID/g
tissue uptake at 2 h (in vivo; Muscle uptake): 0.02 %ID/g
tissue uptake at 6 h (in vivo; Muscle uptake): 0.03 %ID/g
tissue uptake at 24 h (in vivo; Muscle uptake): 0.02 %ID/g
tissue uptake at 1 h (in vivo; Spleen uptake): 0.6 %ID/g
tissue uptake at 2 h (in vivo; Spleen uptake): 0.16 %ID/g
tissue uptake at 6 h (in vivo; Spleen uptake): 0.4 %ID/g
tissue uptake at 24 h (in vivo; Spleen uptake): 0.31 %ID/g
tissue uptake at 1 h (in vivo; Tail uptake): 1.8 %ID/g
tissue uptake at 2 h (in vivo; Tail uptake): 0.7 %ID/g
tissue uptake at 6 h (in vivo; Tail uptake): 0.83 %ID/g
tissue uptake at 24 h (in vivo; Tail uptake): 0.38 %ID/g
tissue uptake at 2 h (in vivo; Tumor uptake): 9.99 %ID/g
tissue to tissue ratio at 1 h (in vivo; [1]): 97.5
tissue to tissue ratio at 2 h (in vivo; [1]): 333
tissue to tissue ratio at 6 h (in vivo; [1]): 278
tissue to tissue ratio at 24 h (in vivo; [1]): 177
tissue to tissue ratio at 1 h (in vivo; [2]): 195
tissue to tissue ratio at 2 h (in vivo; [2]): 333
tissue to tissue ratio at 6 h (in vivo; [2]): 111
tissue to tissue ratio at 24 h (in vivo; [2]): 59
tissue to tissue ratio at 1 h (in vivo; [3]): 57.4
tissue to tissue ratio at 2 h (in vivo; [3]): 62.4
tissue to tissue ratio at 6 h (in vivo; [3]): 37.1
tissue to tissue ratio at 24 h (in vivo; [3]): 17.7
tissue to tissue ratio at 1 h (in vivo; [4]): 0.3
tissue to tissue ratio at 2 h (in vivo; [4]): 0.21
tissue to tissue ratio at 6 h (in vivo; [4]): 0.09
tissue to tissue ratio at 24 h (in vivo; [4]): 0.03
tissue to tissue ratio at 1 h (in vivo; [5]): 78
tissue to tissue ratio at 2 h (in vivo; [5]): 66.6
tissue to tissue ratio at 6 h (in vivo; [5]): 9.27
tissue to tissue ratio at 24 h (in vivo; [5]): 3.34
tissue to tissue ratio at 1 h (in vivo; [6]): 27.9
tissue to tissue ratio at 2 h (in vivo; [6]): 52.6
tissue to tissue ratio at 6 h (in vivo; [6]): 19.9
tissue to tissue ratio at 24 h (in vivo; [6]): 13.6
tissue to tissue ratio at 1 h (in vivo; [7]): 325
tissue to tissue ratio at 2 h (in vivo; [7]): 500
tissue to tissue ratio at 6 h (in vivo; [7]): 185
tissue to tissue ratio at 24 h (in vivo; [7]): 88.5
tissue to tissue ratio at 1 h (in vivo; [8]): 32.5
tissue to tissue ratio at 2 h (in vivo; [8]): 62.4
tissue to tissue ratio at 6 h (in vivo; [8]): 13.9
tissue to tissue ratio at 24 h (in vivo; [8]): 5.71
tissue uptake at 24 h (in vivo; total radioactivity, Kidneys uptake): 54.9 ± 17.1 %ID/g
tissue uptake (in vivo; total radioactivity, Non-target organs uptake): ≤ 1 %ID/g
tissue uptake at 1 h (in vivo; [9]): 19.5 ± 3.5 %ID/g
tissue uptake at 6 h (in vivo; [9]): 5.56 ± 1.24 %ID/g
tissue uptake at 24 h (in vivo; [9]): 1.77 ± 0.51 %ID/g
Brain uptake (HT1080 tumor xenograft; 1 h): 0 %ID/g
Brain uptake (HT1080 tumor xenograft; 24 h): 0 %ID/g
Tumor-to-muscle ratio (HT1080 tumor xenograft; iv, 150 pmol, 24 h): 88
Cell Surface B 4°C (HT1080 cells; [10]): 0.05 ± 0.01 %AA/10^5 cells
Internalization B 4°C (HT1080 cells; [10]): 0.01 ± 0.01 %AA/10^5 cells
Cell Surface 4°C (HT1080 cells; 4°C, listed as 177Lu-BCY18469): 0.51 ± 0.01 %AA/10^5 cells
Internalization 4°C (HT1080 cells; 4°C, listed as 177Lu-BCY18469): 0.06 ± 0.01 %AA/10^5 cells
Cell Surface (HT1080 cells; [11]): 0.62 ± 0.03 %AA/10^5 cells
Internalization (HT1080 cells; [11]): 0.13 ± 0.01 %AA/10^5 cells
Cell Surface B (HT1080 cells; 37°C, block with 10 µM non-labeled compound): 0.02 ± 0.01 %AA/10^5 cells
Internalization B (HT1080 cells; 37°C, block with 10 µM non-labeled compound, listed as 177Lu-BCY18469): 0.01 ± 0.01 %AA/10^5 cells
